Source: patent US20090068637A1

Columns and labels:
Test in all cases: cell-based or functional assay
[1] = molecular target: HA of H5N1 virus strain B4 (avian influenza virus H5N1)
[2] = molecular target: HA of H5N1 virus strain A2 (avian influenza virus H5N1)
[3] = molecular target: HA of H5N1 virus strain A3 (avian influenza virus H5N1)
[4] = molecular target: HA of H5N1 virus strain B3 (avian influenza virus H5N1)
[5] = molecular target: HA of H5N1 virus strain C2 (avian influenza virus H5N1)
[6] = molecular target: HA of H5N1 virus strain B2 (avian influenza virus H5N1)
[7] = molecular target: HA of H5N1 virus strain C3 (avian influenza virus H5N1)
[8] = molecular target: HA of H5N1 virus strain B5 (avian influenza virus H5N1)
[9] = molecular target: HA of H5N1 virus strain F3 (avian influenza virus H5N1)
[10] = molecular target: HA of H5N1 virus strain E1 (avian influenza virus H5N1)
[11] = molecular target: HA of H5N1 virus strain H1 (avian influenza virus H5N1)
[12] = molecular target: HA of H5N1 virus strain A5 (avian influenza virus H5N1)
[13] = molecular target: HA of H5N1 virus strain D1 (avian influenza virus H5N1)
[14] = molecular target: HA of H5N1 virus strain G1 (avian influenza virus H5N1)
[15] = molecular target: HA of H5N1 virus strain A8 (avian influenza virus H5N1)
[16] = molecular target: HA of H5N1 virus strain A1 (avian influenza virus H5N1)
[17] = molecular target: HA of H5N1 virus strain B8 (avian influenza virus H5N1)
[18] = molecular target: HA of H5N1 virus strain B6 (avian influenza virus H5N1)
[19] = molecular target: HA of H5N1 virus strain A6 (avian influenza virus H5N1)
[20] = molecular target: HA of H5N1 virus strain E2 (avian influenza virus H5N1)
[21] = molecular target: HA of H5N1 virus strain B1 (avian influenza virus H5N1)
[22] = molecular target: HA of H5N1 virus strain A7 (avian influenza virus H5N1)
[23] = molecular target: HA of H5N1 virus strain D2 (avian influenza virus H5N1)
[24] = molecular target: HA of H5N1 virus strain F2 (avian influenza virus H5N1)
[25] = molecular target: HA of H5N1 virus strain B7 (avian influenza virus H5N1)
[26] = molecular target: HA of H5N1 virus strain H2 (avian influenza virus H5N1)
[27] = molecular target: HA of H5N1 virus strain VTM4 (avian influenza virus H5N1)
[28] = molecular target: HA of H5N1 virus strain MB2 (avian influenza virus H5N1)
[29] = molecular target: non-H5 viruses (14 strains; H1~H13, Chicken NDV)
[30] = molecular target: HA of H5N1 virus strain IDN3 (avian influenza virus H5N1)
[31] = molecular target: HA of H5N1 virus strain VNM2.1 (avian influenza virus H5N1)
[32] = molecular target: HA of H5N1 virus strain IDN5 (avian influenza virus H5N1)
[33] = molecular target: HA of H5N1 virus strain GD1 (avian influenza virus H5N1)
[34] = molecular target: HA of H5N1 virus strain IDN2 (avian influenza virus H5N1)
[35] = molecular target: HA of H5N1 virus strain MIX1 (avian influenza virus H5N1)
[36] = molecular target: HA of H5N1 virus strain HN1 (avian influenza virus H5N1)
[37] = molecular target: HA of H5N1 virus strain VTM3 (avian influenza virus H5N1)
[38] = molecular target: HA of H5N1 virus strain IDN4 (avian influenza virus H5N1)
[39] = molecular target: HA of H5N1 virus strain VTM1.1 (avian influenza virus H5N1)
[40] = molecular target: HA of H5N1 virus strain IDN1.1 (avian influenza virus H5N1)
[41] = molecular target: HA of H5N1 virus strain MB1 (avian influenza virus H5N1)
[42] = molecular target: H5 virus strains (thirty-four strains of H5N1 viruses)
[43] = molecular target: HA of H5N1 virus strain GD3 (avian influenza virus H5N1)
[44] = molecular target: HA of H5N1 virus strain YN1 (avian influenza virus H5N1)
[45] = molecular target: HA of H5N1 virus strain MIX3 (avian influenza virus H5N1)
[46] = molecular target: HA of H5N1 virus strain GD2 (avian influenza virus H5N1)
[47] = molecular target: HA of H5N1 virus strain HN2 (avian influenza virus H5N1)
[48] = molecular target: HA of H5N1 virus strain MIX2 (avian influenza virus H5N1)
[49] = molecular target: HA of H5N1 virus strain VTM2 (avian influenza virus H5N1)

B1: 4D1 single chain antibody (scFv)
scFv: QVQLQQPGAELVKPGASVNLSCKASGYTFTSYWMHWVKQRPGQGLEWIGEIDPSDSFTTYNQNFKDRATLTVDKSSSTAYMQLRSLTSEDSAVYYCARGGPGDFRYAMDYWGQGTSVTVSSGGGGSDILMTQSPSSMSVSLGDTVSITCHASQGISSNIGWLQQKPGKSFKGLIYHGTNLEDGVPSRFSGSGSGADYSLTISSLESEDFADYYCVQYVQFPYTFGGGTKLEIKRA
**Q.** How did the HI titer (n) (n (dilution 2^n)) [1] turn out when B1 was run?
**A.** > 8

**Q.** What about the HI titer (n) (n (dilution 2^n)) [2] of the same binder?
**A.** > 8

**Q.** What about the HI titer (n) (n (dilution 2^n)) [3] of the same binder?
**A.** > 8

**Q.** What about the HI titer (n) (n (dilution 2^n)) [4] of the same binder?
**A.** > 8

**Q.** What about the HI titer (n) (n (dilution 2^n)) [5] of the same binder?
**A.** > 8

**Q.** What about the HI titer (n) (n (dilution 2^n)) [6] of the same binder?
**A.** 0

**Q.** What about the HI titer (n) (n (dilution 2^n)) [7] of the same binder?
**A.** > 8

**Q.** And the HI titer (n) (n (dilution 2^n)) [8]?
**A.** 0

**Q.** What about the HI titer (n) (n (dilution 2^n)) [9] of the same binder?
**A.** 3

**Q.** What about the HI titer (n) (n (dilution 2^n)) [10] of the same binder?
**A.** 1

**Q.** What about the HI titer (n) (n (dilution 2^n)) [11] of the same binder?
**A.** 6

**Q.** What about the HI titer (n) (n (dilution 2^n)) [12] of the same binder?
**A.** > 8

**Q.** What about the HI titer (n) (n (dilution 2^n)) [13] of the same binder?
**A.** > 8

**Q.** And the HI titer (n) (n (dilution 2^n)) [14]?
**A.** 3.5

**Q.** And the HI titer (n) (n (dilution 2^n)) [15]?
**A.** > 8

**Q.** And the HI titer (n) (n (dilution 2^n)) [16]?
**A.** > 8

**Q.** What about the HI titer (n) (n (dilution 2^n)) [17] of the same binder?
**A.** > 8

**Q.** What about the HI titer (n) (n (dilution 2^n)) [18] of the same binder?
**A.** > 8

**Q.** What about the HI titer (n) (n (dilution 2^n)) [19] of the same binder?
**A.** 7

**Q.** What about the HI titer (n) (n (dilution 2^n)) [20] of the same binder?
**A.** 1

**Q.** And the HI titer (n) (n (dilution 2^n)) [21]?
**A.** > 8

**Q.** What about the HI titer (n) (n (dilution 2^n)) [22] of the same binder?
**A.** 6

**Q.** And the HI titer (n) (n (dilution 2^n)) [23]?
**A.** 7.5

**Q.** And the HI titer (n) (n (dilution 2^n)) [24]?
**A.** 5

**Q.** What about the HI titer (n) (n (dilution 2^n)) [25] of the same binder?
**A.** > 8

**Q.** And the HI titer (n) (n (dilution 2^n)) [26]?
**A.** 4

B2: monoclonal antibody 3C8 (antibody, V domains shown)
VH: QIQLVQSGPELKKPGETVKISCKASGYSFTNYGMNWVKQAPGKGLKWMGWINTYTGEPAYADDFKGRFAFSLETSASTAYLQINNLKNEDTATYFCARWNRDAMDYWGQGTSVTVSS
VL: DIVLTQSPASLAVSLGQRATISCRASESVDSSDNSLMHWYQQKPGQPPKLLIYRASNLESGIPARFSGSGSRTDFTLTINPVEADDVATYYCQQSIGDPPYTFGGGTKLEIKR
**Q.** How did the HI titer [27] turn out when B2 was run?
**A.** 800 titer

**Q.** What about the Neutralization titer [27] of the same binder?
**A.** 12800 titer

**Q.** What about the HI titer [28] of the same binder?
**A.** 3200 titer

**Q.** And the Neutralization titer [28]?
**A.** 12800 titer

**Q.** What about the HI assay: positive number/total virus number (of 14 strains) [29] of the same binder?
**A.** 0

**Q.** And the HI titer [30]?
**A.** < 100 titer

**Q.** And the HI titer [31]?
**A.** < 100 titer

**Q.** And the Neutralization titer [31]?
**A.** < 100 titer

**Q.** And the HI titer [32]?
**A.** 6400 titer

**Q.** And the Neutralization titer [32]?
**A.** 6400 titer

**Q.** And the HI titer [33]?
**A.** 6400 titer

**Q.** And the Neutralization titer [33]?
**A.** 12800 titer

**Q.** And the HI titer [34]?
**A.** 400 titer

**Q.** And the Neutralization titer [34]?
**A.** 12800 titer

**Q.** What about the HI titer [35] of the same binder?
**A.** 1600 titer

**Q.** What about the Neutralization titer [35] of the same binder?
**A.** 100 titer

**Q.** And the HI titer [36]?
**A.** 3200 titer

**Q.** What about the Neutralization titer [36] of the same binder?
**A.** 12800 titer

**Q.** And the HI titer [37]?
**A.** 6400 titer

**Q.** What about the Neutralization titer [37] of the same binder?
**A.** 12800 titer

**Q.** And the HI titer [38]?
**A.** 6400 titer

**Q.** And the Neutralization titer [38]?
**A.** 12800 titer

**Q.** And the HI titer [39]?
**A.** 3200 titer

**Q.** And the Neutralization titer [39]?
**A.** 1600 titer

**Q.** And the HI titer [40]?
**A.** 3200 titer

**Q.** And the Neutralization titer [40]?
**A.** 6400 titer

**Q.** And the HI titer [41]?
**A.** 400 titer

**Q.** And the HI assay: positive number/total virus number (of 34 strains) [42]?
**A.** 32

**Q.** And the HI titer [43]?
**A.** 3200 titer

**Q.** What about the Neutralization titer [43] of the same binder?
**A.** 200 titer

**Q.** What about the HI titer [44] of the same binder?
**A.** 1600 titer

**Q.** And the HI titer [45]?
**A.** 400 titer

**Q.** What about the Neutralization titer [45] of the same binder?
**A.** 200 titer

**Q.** And the HI titer [46]?
**A.** 12800 titer

**Q.** What about the Neutralization titer [46] of the same binder?
**A.** 12800 titer

**Q.** And the HI titer [47]?
**A.** 800 titer

**Q.** And the Neutralization titer [47]?
**A.** 6400 titer

**Q.** And the HI titer [48]?
**A.** 800 titer

**Q.** And the Neutralization titer [48]?
**A.** < 100 titer

**Q.** And the HI titer [49]?
**A.** 1600 titer

**Q.** What about the Neutralization titer [49] of the same binder?
**A.** 6400 titer
